# Measurements from patent US20260167712A1, “INHIBITORY ANTIBODIES AGAINST GLUT1” (ICOSAGEN CELL FACTORY OÜ, priority 2022, published 2026).
# “Also recorded” adds a separate entry of the source.
# Legend:
# SLC2A2 pseudotyped VLPs [1] = target: T1, SLC2A2 pseudotyped VLPs (Homo sapiens, UniProt P11168); assay: ELISA-based VLP binding assay, SLC2A2; details: compared to MOCK VLPs, FIG. 3
# T1 sequence (P11168 1-524): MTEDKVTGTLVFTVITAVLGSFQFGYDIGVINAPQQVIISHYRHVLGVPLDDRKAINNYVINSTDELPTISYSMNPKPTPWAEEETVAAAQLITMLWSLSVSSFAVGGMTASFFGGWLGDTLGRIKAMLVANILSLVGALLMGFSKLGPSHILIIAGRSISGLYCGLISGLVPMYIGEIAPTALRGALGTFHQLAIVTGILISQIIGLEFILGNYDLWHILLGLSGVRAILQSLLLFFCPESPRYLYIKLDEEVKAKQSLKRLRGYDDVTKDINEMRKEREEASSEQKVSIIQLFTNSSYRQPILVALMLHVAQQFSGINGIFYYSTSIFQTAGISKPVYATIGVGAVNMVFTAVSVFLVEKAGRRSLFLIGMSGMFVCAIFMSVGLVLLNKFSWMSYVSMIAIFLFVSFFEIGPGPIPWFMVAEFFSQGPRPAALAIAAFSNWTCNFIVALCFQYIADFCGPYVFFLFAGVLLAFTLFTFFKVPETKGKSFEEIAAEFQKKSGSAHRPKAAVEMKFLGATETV
# Experimental: An ELISA-based VLP binding assay was carried out to compare the EC50 values of antibody clones (FIG. 1). Similarly, ELISA based VLP binding assay was performed to compare the binding of the antibodies to different glucose transporters (FIG. 3). MaxiSorp™ high-capacity binding ELISA plate (Thermo Fisher Scientific, US) were coated with 5 μg/mL SLC2A1, SLC2A2, SLC2A3, SLC2A4 pseudotyped VLPs or MOCK VLPs in PBS overnight. The plate was washed and blocked for 1 h with 0.05% Tween 20, 2% BSA in PBS. Serial dilutions of antibodies were incubated on a washed plate for 1 hour, followed by a 1-hour incubation with goat anti-human IgG horse radish peroxidase (HRP) conjugated (Invitrogen) antibody. TMB (3,3′,5,5′-Tetramethylbenzidine) Solution VII (Biopanda Diagnostics) was used as a substrate for HRP and 0.5 M H2SO4 was used as stop solution. After every step, the wells were washed with 0.05% Tween 20, 0.1% Proclin 300 PBS solution. Absorption at 450 nm was measured with Thermo Scientific™ Multiskan™ FC Microplate Photometer. Exemplary wise used antibodies 1G2 #9, 2A2 #12, 2E5 #22, 5G5 #30, 6F12 #33, 7C3 #39 all bound SLC2A1 VLPs with low nanomolar EC50 values (FIG. 1).
# MCF7 breast cancer cells = assay: Cell proliferation inhibition assay (Incucyte), MCF7; type: cell-based; details: for MCF7 cell growth in combination with phenformin: co-treatment with phenformin, FIGS. 7 and 9
# Experimental: (§1) Incucyte S3 Live cell analysis instrument and Cell-by-Cell analysis software module (Sartorius) were used to evaluate the effect of anti-SLC2A1 antibodies on cancer cell proliferation label-free (FIGS. 5-11). MCF7, PC3 or PANC1 or MIAPACA2 cells were plated on flat bottom tissue culture 96-well plate in […] medium (Ximbio) supplemented with 2.5% FBS. Cells were incubated overnight and 0.02 nM to 13 μM anti-SLC2A1 antibodies, anti-HEL isotype control, PBS or BAY-876 were added to the cells alone or in combination with metformin (CaymanChem), phenformin (Sigma Aldrich) or IACS-010759 (CaymanChem). Cell confluence or object count was measured for 24 to 96 hours with Incucyte S3 and normalized to timepoint 0 h or 4h. anti-SLC2A1 antibodies inhibit cancer cell proliferation alone and especially in combination with complex-I inhibitors metformin, phenformin and IACS-010759. Exemplary antibodies 1G2 #9, 2A2 #12, 2E5 #22, 5G5 #30, 6F12 #33, 7C3 #39 and R14 #54 were used in proliferation assays.
# SLC2A2 pseudotyped VLPs [2] = target: T2, SLC2A2 pseudotyped VLPs (UniProt P11168 1-524); assay: ELISA on VLPs coated at 5 ug/mL, compared with MOCK VLPs
# T2 construct: also called SLC2A2 VLPs; GLUT2
# T2 sequence: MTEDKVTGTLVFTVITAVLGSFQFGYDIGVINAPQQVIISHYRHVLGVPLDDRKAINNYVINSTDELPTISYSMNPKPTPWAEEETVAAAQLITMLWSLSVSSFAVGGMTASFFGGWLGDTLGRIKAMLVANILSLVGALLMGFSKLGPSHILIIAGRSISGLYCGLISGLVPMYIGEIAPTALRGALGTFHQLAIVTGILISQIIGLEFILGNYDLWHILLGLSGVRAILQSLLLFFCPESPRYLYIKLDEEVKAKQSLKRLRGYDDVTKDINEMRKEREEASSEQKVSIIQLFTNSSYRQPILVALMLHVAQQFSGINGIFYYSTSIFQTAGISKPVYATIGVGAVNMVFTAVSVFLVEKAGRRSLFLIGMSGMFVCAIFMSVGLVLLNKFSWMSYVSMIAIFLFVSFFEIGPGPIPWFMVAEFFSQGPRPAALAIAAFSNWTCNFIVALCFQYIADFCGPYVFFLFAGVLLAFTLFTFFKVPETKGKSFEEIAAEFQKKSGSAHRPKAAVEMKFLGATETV
# SLC2A3 pseudotyped VLPs = target: T3, SLC2A3 pseudotyped VLPs (UniProt P11169 1-496); assay: as above
# T3 construct: also called SLC2A3 VLPs; GLUT3
# T3 sequence: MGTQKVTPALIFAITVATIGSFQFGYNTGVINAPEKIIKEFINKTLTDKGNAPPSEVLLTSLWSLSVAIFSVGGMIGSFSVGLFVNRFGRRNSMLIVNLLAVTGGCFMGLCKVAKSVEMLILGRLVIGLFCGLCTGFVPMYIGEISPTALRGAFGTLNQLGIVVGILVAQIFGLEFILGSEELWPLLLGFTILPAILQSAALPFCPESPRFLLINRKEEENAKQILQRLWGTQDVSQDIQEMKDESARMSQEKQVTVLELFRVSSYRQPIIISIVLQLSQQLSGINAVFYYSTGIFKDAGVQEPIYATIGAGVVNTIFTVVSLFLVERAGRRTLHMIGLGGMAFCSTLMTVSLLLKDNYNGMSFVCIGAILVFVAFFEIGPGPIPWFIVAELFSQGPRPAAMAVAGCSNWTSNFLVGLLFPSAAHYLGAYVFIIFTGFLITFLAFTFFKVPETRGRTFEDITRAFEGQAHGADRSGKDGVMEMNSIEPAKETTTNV
# SLC2A4 pseudotyped VLPs = target: T4, SLC2A4 pseudotyped VLPs (UniProt P14672 1-509); assay: as above
# T4 construct: also called SLC2A4 VLPs; GLUT4
# T4 sequence: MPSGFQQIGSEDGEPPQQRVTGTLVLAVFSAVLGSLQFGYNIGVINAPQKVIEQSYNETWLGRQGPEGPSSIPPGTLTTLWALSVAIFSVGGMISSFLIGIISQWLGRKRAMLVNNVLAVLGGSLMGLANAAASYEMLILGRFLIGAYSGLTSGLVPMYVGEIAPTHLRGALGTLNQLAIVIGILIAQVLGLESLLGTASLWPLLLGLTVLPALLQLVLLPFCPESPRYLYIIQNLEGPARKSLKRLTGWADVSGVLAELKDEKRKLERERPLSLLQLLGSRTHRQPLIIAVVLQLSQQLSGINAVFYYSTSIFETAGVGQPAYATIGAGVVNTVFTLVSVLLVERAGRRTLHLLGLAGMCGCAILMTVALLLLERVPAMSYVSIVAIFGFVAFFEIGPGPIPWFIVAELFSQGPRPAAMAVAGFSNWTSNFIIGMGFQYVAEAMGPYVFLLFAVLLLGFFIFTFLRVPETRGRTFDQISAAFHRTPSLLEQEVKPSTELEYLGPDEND
# [3] = tested on: PANC1 pancreatic cancer cell line; assay: Cell proliferation inhibition assay (Incucyte), PANC1; type: cell-based; details: co-treatment with IACS-010759, compared to single agents, FIG. 11B
# Experimental: as §1
Molecule,binding to SLC2A2 VLPs (SLC2A2 pseudotyped VLPs [1]),"MCF7 cell growth (confluence), single agent (MCF7 breast cancer cells; alone, Incucyte)",MCF7 cell growth in combination with phenformin (MCF7 breast cancer cells),binding result (SLC2A2 pseudotyped VLPs [2]),binding result (SLC2A3 pseudotyped VLPs),binding result (SLC2A4 pseudotyped VLPs),"MCF7 cell growth in combination with IACS-010759 (MCF7 breast cancer cells; co-treatment with IACS-010759, FIG. 8)","MCF7 cell growth in combination with metformin (MCF7 breast cancer cells; co-treatment with metformin, FIG. 6)",PANC1 cell growth in combination with IACS-010759 [3]
"2E5 #22 (antibody, V domains shown) VH: AVTLDESGGGLQTPGGALSLVCKASGFTFSTKGMGWVRQTPGKGLEWVAGISSMRRYTYYAPAVKGRATISRDNGQSTVRLQLSSLRAEDSGTYYCARDATYCSWTTSTCGWSGGTIDAWGHGTEVIVSS VL: ALTQPSSVSANLGGTVKITCSGGSGNYGWYQQKSPGSVPVTVIYSNDKRPSDIPSRFSGSGSGSTATLTITGVQVEDEAVYFCGSRDSSYVGLFGAGTTLTVL",did not bind; also recorded: Some binding,only a modest inhibition,completely inhibit; also recorded: most potent growth inhibitors,no binding,no binding,no binding,,,
"6F12 #33 (antibody, V domains shown) VH: AVTLDESGGGLQTPGGALSLVCKASGFTFSDHAIFWVRQAPDKGLEFVAAISSGTGSWTAYATVVKGRATISRDNGQSTVRLQLNNLRAADTATYYCAKGAGSACCYAGSIDAWGHGTEVIVSS VL: ALTQPSSVSANPGETVKITCSGGSSSSYYGWYQQKSPGSAPVTLIYYNDKRPSDIPSRFSGSKSGSTATLTITGVQVEDEAVYYCGTGDGSFAIFGAGTTLTVL",did not bind,,completely inhibit; also recorded: drastically inhibited; also recorded: most potent growth inhibitors,no binding,no binding,no binding,drastically inhibited,drastically inhibited,dramatic growth reduction
